# Source: patent publication US20100254992A1
# B1: C775 Fab (reference Fab) (Fab, from another filing, V domains shown)
# VH: QVQLKQSGAELVRPGASVKLSCKASGYTFTDYYINWVKQRPGQGLEWIARIYPGTGNTYYNENFKGKATLTAEKSSSTAYMQLSSLTSEDSAVYFCARSGSTVVGNYYGMDYWGQGTSVTVSS
# VL: SIVMTQTPKFLLVSAGDRVSITCKASQSVSNDVAWYQQKPGQSPKLLIYYASNRYTGVPDRFTGSGYGTDFTFTISTVQAEDLAVYFCQQDYSSPWTFGGGTKLEIKR
# B2: C775 (murine anti-human MCP-1 antibody, IgG) (antibody, from another filing, V domains shown)
# VH: B1 VH
# VL: B1 VL
# Tests used:
# [1] = target: Human Monocyte Chemoattractant Protein-1 (MCP-1) (human) (UniProt P13500); assay: cell-based or functional assay
# Chain of Human Monocyte Chemoattractant Protein-1 (MCP-1) (human) (P13500 24-99 limits assumed): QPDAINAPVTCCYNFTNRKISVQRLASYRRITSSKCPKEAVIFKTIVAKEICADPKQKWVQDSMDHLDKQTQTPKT
# [2] = target: Human Monocyte Chemoattractant Protein-1 (MCP-1) (human) (UniProt P13500); assay: IGEN (BioVeris), MCP-1 Kd
# [3] = target: Human Monocyte Chemoattractant Protein-1 (MCP-1) (human) (UniProt P13500); assay: 125I-MCP-1 binding to CCR2 on THP-1 cells, radioligand competition
# [4] = target: HuMCP-1-His6 (wild type) (human) (UniProt P13500); assay: Biacore
# Chain of HuMCP-1-His6 (wild type) (human) (P13500 24-99 limits assumed): as above
# [5] = target: HuMCP-1-His6 Mutant-6 (66D → 66K) (human) (UniProt P13500); assay: Biacore
# Chain of HuMCP-1-His6 Mutant-6 (66D → 66K) (human) (P13500 other isoform, or with tags, fused parts or gaps mutant, form in doubt): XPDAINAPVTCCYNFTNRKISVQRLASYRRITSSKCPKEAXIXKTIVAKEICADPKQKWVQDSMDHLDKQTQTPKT
# [6] = target: HuMCP-1-His6 (wild type) (human) (UniProt P13500); assay: Biacore, C775 captured, MCP-1-His6 in solution
# [7] = target: HuMCP-1-His6 Mutant-1 (33SSK35 → 33NIQ35) (human) (UniProt P13500); assay: Biacore, C775 captured, MCP-1-His6 in solution
# Chain of HuMCP-1-His6 Mutant-1 (33SSK35 → 33NIQ35) (human) (P13500 other isoform, or with tags, fused parts or gaps mutant limits assumed): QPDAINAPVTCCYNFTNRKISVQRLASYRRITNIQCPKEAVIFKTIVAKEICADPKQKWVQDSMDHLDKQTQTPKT
# [8] = target: HuMCP-1-His6 Mutant-2 (6NA7 → 6SI7) (human) (UniProt P13500); assay: Biacore, C775 captured, MCP-1-His6 in solution
# Chain of HuMCP-1-His6 Mutant-2 (6NA7 → 6SI7) (human) (P13500 other isoform, or with tags, fused parts or gaps mutant limits assumed): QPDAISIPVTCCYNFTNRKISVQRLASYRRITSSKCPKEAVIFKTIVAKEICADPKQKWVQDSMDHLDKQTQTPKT
# [9] = target: HuMCP-1-His6 Mutant-3 (15FT16 → 15VI16) (human) (UniProt P13500); assay: Biacore, C775 captured, MCP-1-His6 in solution
# Chain of HuMCP-1-His6 Mutant-3 (15FT16 → 15VI16) (human) (P13500 other isoform, or with tags, fused parts or gaps mutant limits assumed): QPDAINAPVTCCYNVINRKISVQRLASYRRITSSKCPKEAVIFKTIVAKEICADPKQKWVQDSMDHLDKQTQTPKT
# [10] = target: HuMCP-1-His6 Mutant-4 (29R → 29T) (human) (UniProt P13500); assay: Biacore, C775 captured, MCP-1-His6 in solution
# Chain of HuMCP-1-His6 Mutant-4 (29R → 29T) (human) (P13500 other isoform, or with tags, fused parts or gaps mutant limits assumed): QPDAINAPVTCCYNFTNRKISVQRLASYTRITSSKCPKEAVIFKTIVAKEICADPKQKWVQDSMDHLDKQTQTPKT
# [11] = target: HuMCP-1-His6 Mutant-5 (46IV47 → 46KR47) (human) (UniProt P13500); assay: Biacore, C775 captured, MCP-1-His6 in solution
# Chain of HuMCP-1-His6 Mutant-5 (46IV47 → 46KR47) (human) (P13500 other isoform, or with tags, fused parts or gaps mutant limits assumed): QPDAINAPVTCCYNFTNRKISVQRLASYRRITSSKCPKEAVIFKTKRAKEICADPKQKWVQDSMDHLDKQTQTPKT
# [12] = target: HuMCP-1-His6 Mutant-6 (66D → 66K) (human) (UniProt P13500); assay: Biacore, C775 captured, MCP-1-His6 in solution
# [13] = target: HuMCP-1-His6 Mutant-7 (4AINA7 → 4SVSI7) (human) (UniProt P13500); assay: Biacore, C775 captured, MCP-1-His6 in solution
# Chain of HuMCP-1-His6 Mutant-7 (4AINA7 → 4SVSI7) (human) (P13500 other isoform, or with tags, fused parts or gaps mutant limits assumed): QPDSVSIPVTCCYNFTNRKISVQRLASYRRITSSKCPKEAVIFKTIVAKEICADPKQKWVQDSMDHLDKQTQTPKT
# [14] = target: HuMCP-1-His6 Mutant-8 (4AINA7 → 4GGGG7) (human) (UniProt P13500); assay: Biacore, C775 captured, MCP-1-His6 in solution
# Chain of HuMCP-1-His6 Mutant-8 (4AINA7 → 4GGGG7) (human) (P13500 other isoform, or with tags, fused parts or gaps mutant limits assumed): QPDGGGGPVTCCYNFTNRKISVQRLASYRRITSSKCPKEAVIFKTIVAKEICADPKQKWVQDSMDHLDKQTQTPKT
# [15] = target: HuMCP-1-His6 Mutant-9 (4AINA7 . . . 46IV47 → 4SVSI7 . . . 46KR47) (human); assay: Biacore, C775 captured, MCP-1-His6 in solution
# Chain of HuMCP-1-His6 Mutant-9 (4AINA7 . . . 46IV47 → 4SVSI7 . . . 46KR47) (human) (chain, as listed by the source mutant limits assumed): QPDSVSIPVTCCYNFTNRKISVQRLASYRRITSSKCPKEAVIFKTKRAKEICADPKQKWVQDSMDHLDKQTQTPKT
# [16] = target: HuMCP-1-His6 Mutant-P8A (human) (UniProt P13500); assay: Biacore, C775 captured, MCP-1-His6 in solution
# Chain of HuMCP-1-His6 Mutant-P8A (human) (P13500 other isoform, or with tags, fused parts or gaps limits assumed, stated change not applied): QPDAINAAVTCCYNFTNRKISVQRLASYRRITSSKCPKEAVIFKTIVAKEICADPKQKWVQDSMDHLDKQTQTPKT
# [17] = target: HuMCP-1-His6 Mutant-Y13A (human) (UniProt P13500); assay: Biacore, C775 captured, MCP-1-His6 in solution
# Chain of HuMCP-1-His6 Mutant-Y13A (human) (P13500 24-99 Y36A limits assumed): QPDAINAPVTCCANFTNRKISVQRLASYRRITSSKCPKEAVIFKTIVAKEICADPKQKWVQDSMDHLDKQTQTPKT
binder,measurement,setting,value
B1,Inhibition of Ca2+ Mobilization IC50,[1],71.5 nM
same,Kd,[2],65 nM
same,IC50,[3],35.6 nM
B2,Kd,[4],3 nM
same,fold decrease in fold change in binding affinity against wild type MCP-1,[5],9 fold
same,Inhibition of Ca2+ Mobilization IC50,[1],62.3 nM
same,Kd,[6],3.1 nM
same,koff,[6],0.00503 s⁻¹
same,kon,[6],1.64e+06 M⁻¹ s⁻¹
same,Kd,[7],2 nM
same,koff,[7],0.0034 s⁻¹
same,kon,[7],1.6e+06 M⁻¹ s⁻¹
same,Kd,[8],6.3 nM
same,koff,[8],0.00548 s⁻¹
same,kon,[8],868000 M⁻¹ s⁻¹
same,Kd,[9],4.5 nM
same,koff,[9],0.0074 s⁻¹
same,kon,[9],1.66e+06 M⁻¹ s⁻¹
same,Kd,[10],3 nM
same,koff,[10],0.0027 s⁻¹
same,kon,[10],880000 M⁻¹ s⁻¹
same,Kd,[11],1.7 nM
same,koff,[11],0.00278 s⁻¹
same,kon,[11],1.64e+06 M⁻¹ s⁻¹
same,Kd,[12],27.7 nM
same,koff,[12],0.00541 s⁻¹
same,kon,[12],195000 M⁻¹ s⁻¹
same,Kd,[13],4.5 nM
same,koff,[13],0.00327 s⁻¹
same,kon,[13],720000 M⁻¹ s⁻¹
same,Kd,[14],5.5 nM
same,koff,[14],0.00947 s⁻¹
same,kon,[14],1.73e+06 M⁻¹ s⁻¹
same,Kd,[15],1.7 nM
same,koff,[15],0.00531 s⁻¹
same,kon,[15],3.16e+06 M⁻¹ s⁻¹
same,Kd,[16],2.6 nM
same,koff,[16],0.00448 s⁻¹
same,kon,[16],1.75e+06 M⁻¹ s⁻¹
same,Kd,[17],1.7 nM
same,koff,[17],0.003 s⁻¹
same,kon,[17],1.79e+06 M⁻¹ s⁻¹
same,IC50,[3],25.6 nM
